Source: paper doi:10.1101/2022.12.12.520143

Target: GDP-L-galactose phosphorylase 1 (GGP1) with His6, expressed in E. coli (Solanum lycopersicum (tomato))

inhibition of GGP activity by PLP incubated 2 h in darkness before mixing: 86%
Substance: PAS/LOV protein (PLP) with His6, expressed in tobacco (natural protein)
